Here are results for 20 sequences from US20240376151A1, “STAPLED PEPTIDES AND METHODS THEREOF” (FOG PHARMACEUTICALS, INC., priority 2022, published 2024).

Numbered stars: 1 amine (or outer) side, 2 acyl side, 3 side chain; on linkers, the order of the positions; unused ones are H or OH. Bridge positions count the residues as written; N and C are the ends. Ends that are not written are not given here. Phenylene(1,4-NHCOCH2)2 = O=C(C[*:1])Nc1ccc(NC(=O)C[*:2])cc1

In one test the target is T1, WWP2^HECT (Homo sapiens, UniProt O00308).
T1 construct: GST-TEV (N, cleaved yes); made in house; host or cells: Escherichia coli BL21 (DE3)
The test is described as follows: Naive Library Presenter Screening (phage, NGS), WWP2^HECT. In kind it is binding. The conditions noted are these: for interaction data at Target Concentration 10: WWP2 target concentration 10 nM; for interaction data at Target Concentration 30: WWP2 target concentration 30 nM; for interaction data at Target Concentration 100: WWP2 target concentration 100 nM; for interaction data at Target Concentration 300: WWP2 target concentration 300 nM; for interaction data at Target Concentration 1000: WWP2 target concentration 1000 nM.

Another test deals with CDK2 (Homo sapiens, UniProt P24941). The test is described as follows: Phage Library Screening with NGS, CDK2. In kind it is binding. Also on record: Full length CDK2 (residues 1-298) with an N-terminal GST-3C-6×his-TEV tag; GST-3C-6×his-TEV (N, cleaved yes); made in house; host or cells: Sf9 (Bac-to-Bac baculovirus). The conditions noted are these: for phage screen counts, Target Concentration 10: CDK2, target concentration 10; for phage screen counts, Target Concentration 30: CDK2, target concentration 30; for phage screen counts, Target Concentration 100: CDK2, target concentration 100; for phage screen counts, Target Concentration 300: CDK2, target concentration 300.

Where [1] appears, read: CDK2, target concentration 1000, first column.
Setting [2] is: CDK2, target concentration 1000, second column.

T1 sequence (O00308 492-865): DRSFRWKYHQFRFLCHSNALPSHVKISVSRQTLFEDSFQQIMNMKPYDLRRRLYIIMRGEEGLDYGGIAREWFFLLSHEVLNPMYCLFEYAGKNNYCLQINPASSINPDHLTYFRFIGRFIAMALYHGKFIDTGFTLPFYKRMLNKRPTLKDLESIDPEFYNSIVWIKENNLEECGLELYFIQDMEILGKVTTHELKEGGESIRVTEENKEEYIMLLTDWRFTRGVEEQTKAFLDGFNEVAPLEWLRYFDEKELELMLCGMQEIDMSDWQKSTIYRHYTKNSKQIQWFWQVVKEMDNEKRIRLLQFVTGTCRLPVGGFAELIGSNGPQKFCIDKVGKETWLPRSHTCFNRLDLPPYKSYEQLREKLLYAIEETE

Regarding “DPATWDCNVAAHRCWFL (linker 7-14 via Phenylene(1,4-NHCOCH2)2 (inferred); not fully specified (C-terminus))”, in the test with WWP2^HECT, the “interaction data at Target Concentration 10” value was 1, the “interaction data at Target Concentration 30” value is 0, the “interaction data at Target Concentration 100” value is given as 12 and the “interaction data at Target Concentration 300” value is reported as 60. Moreover, in the test with WWP2^HECT (first column), the “interaction data at Target Concentration 1000” value worked out at 40. In the test with WWP2^HECT (second column), the “interaction data at Target Concentration 1000” value stood at 75.
With “DPATWACINAAHNCWRN (DPATWACINAAHNCWRN-NH2; linker 7-14 via Phenylene(1,4-NHCOCH2)2 (inferred))”, in the test with WWP2^HECT, the “interaction data at Target Concentration 10” value is given as 0, the “interaction data at Target Concentration 30” value is 0, the “interaction data at Target Concentration 100” value came out at 0 and the “interaction data at Target Concentration 300” value was 6. Moreover, the “interaction data at Target Concentration 1000” value with WWP2^HECT (first column) came out at 23. In the test with WWP2^HECT (second column), the “interaction data at Target Concentration 1000” value is reported as 15.
For the sequence “DPALWECRNAAWQCWMH (linker 7-14 via Phenylene(1,4-NHCOCH2)2; not fully specified (C-terminus))”, in the test with WWP2^HECT, the “interaction data at Target Concentration 10” value came out at 0, the “interaction data at Target Concentration 30” value came out at 0, the “interaction data at Target Concentration 100” value is recorded as 0 and the “interaction data at Target Concentration 300” value amounted to 24. For the same sequence, in the test with WWP2^HECT (first column), the “interaction data at Target Concentration 1000” value was 35. Also, the “interaction data at Target Concentration 1000” value with WWP2^HECT (second column) worked out at 27.
In the case of “PCLEAFFSCVY (linker 2-9 via Phenylene(1,4-NHCOCH2)2 (inferred))”, in the test with CDK2, the “phage screen counts, Target Concentration 10” value worked out at 0; the “phage screen counts, Target Concentration 30” value is 0; the “phage screen counts, Target Concentration 100” value was found to be 0; the “phage screen counts, Target Concentration 300” value is 61. Further, the “phage screen counts, Target Concentration 1000” value in the test with CDK2 (setting [1]) turned out to be 314. Further, the “phage screen counts, Target Concentration 1000” value in the test with CDK2 (setting [2]) is 257.
On to “DPAWWRCSIAAVDCEMQ (linker 7-14 via Phenylene(1,4-NHCOCH2)2 (inferred))”, for which, in the test with CDK2, the “phage screen counts, Target Concentration 10” value is 0; the “phage screen counts, Target Concentration 30” value is 0; the “phage screen counts, Target Concentration 100” value is recorded as 0; the “phage screen counts, Target Concentration 300” value was 93. In addition, the “phage screen counts, Target Concentration 1000” value with CDK2 (setting [1]) was 238. Moreover, the “phage screen counts, Target Concentration 1000” value in the test with CDK2 (setting [2]) is 217.
Take “DPAWWTCIIAALECEEQ (linker 7-14 via Phenylene(1,4-NHCOCH2)2 (inferred))”: in the test with CDK2, the “phage screen counts, Target Concentration 10” value was found to be 0; the “phage screen counts, Target Concentration 30” value was determined as 0; the “phage screen counts, Target Concentration 100” value is recorded as 51; the “phage screen counts, Target Concentration 300” value was 193. The “phage screen counts, Target Concentration 1000” value with CDK2 (setting [1]) was found to be 195. In addition, the “phage screen counts, Target Concentration 1000” value with CDK2 (setting [2]) is on record as 102.
As for “DPAWWSCVIAAMECQDI (linker 7-14 via Phenylene(1,4-NHCOCH2)2 (inferred))”, in the test with CDK2, the “phage screen counts, Target Concentration 10” value stood at 0; the “phage screen counts, Target Concentration 30” value is listed as 0; the “phage screen counts, Target Concentration 100” value is 0; the “phage screen counts, Target Concentration 300” value is given as 39. In addition, the “phage screen counts, Target Concentration 1000” value with CDK2 (setting [1]) amounted to 87. Also, the “phage screen counts, Target Concentration 1000” value with CDK2 (setting [2]) stood at 90.
On to “ECLSAFFTCV (linker 2-9 via Phenylene(1,4-NHCOCH2)2 (inferred))”, for which, in the test with CDK2, the “phage screen counts, Target Concentration 10” value is given as 0; the “phage screen counts, Target Concentration 30” value came to 0; the “phage screen counts, Target Concentration 100” value came out at 0; the “phage screen counts, Target Concentration 300” value stood at 57. For the same sequence, the “phage screen counts, Target Concentration 1000” value in the test with CDK2 (setting [1]) amounted to 452. In addition, the “phage screen counts, Target Concentration 1000” value with CDK2 (setting [2]) was determined as 284.
Take “CLDAFFACER (linker 1-8 via Phenylene(1,4-NHCOCH2)2 (inferred); not fully specified (C-terminus))”: in the test with CDK2, the “phage screen counts, Target Concentration 10” value amounted to 0; the “phage screen counts, Target Concentration 30” value is recorded as 0; the “phage screen counts, Target Concentration 100” value was 0; the “phage screen counts, Target Concentration 300” value was determined as 4. For the same sequence, the “phage screen counts, Target Concentration 1000” value in the test with CDK2 (setting [1]) worked out at 7. Besides, in the test with CDK2 (setting [2]), the “phage screen counts, Target Concentration 1000” value is reported as 408.
For the sequence “MACVDAFFSC (linker 3-10 via Phenylene(1,4-NHCOCH2)2 (inferred))”, in the test with CDK2, the “phage screen counts, Target Concentration 10” value was 0; the “phage screen counts, Target Concentration 30” value was 0; the “phage screen counts, Target Concentration 100” value stood at 1; the “phage screen counts, Target Concentration 300” value came to 17. The “phage screen counts, Target Concentration 1000” value with CDK2 (setting [1]) turned out to be 320. Moreover, the “phage screen counts, Target Concentration 1000” value in the test with CDK2 (setting [2]) turned out to be 16.
Consider “DPAWWHCSIAALECHTT (linker 7-14 via Phenylene(1,4-NHCOCH2)2 (inferred))”, for which, in the test with CDK2, the “phage screen counts, Target Concentration 10” value is reported as 0; the “phage screen counts, Target Concentration 30” value is on record as 18; the “phage screen counts, Target Concentration 100” value is 25; the “phage screen counts, Target Concentration 300” value is on record as 216. Besides, in the test with CDK2 (setting [1]), the “phage screen counts, Target Concentration 1000” value turned out to be 195. In addition, the “phage screen counts, Target Concentration 1000” value with CDK2 (setting [2]) was determined as 358.
Take “CLSAFFMCSS (linker 1-8 via Phenylene(1,4-NHCOCH2)2 (inferred); not fully specified (C-terminus))”: in the test with CDK2, the “phage screen counts, Target Concentration 10” value turned out to be 0; the “phage screen counts, Target Concentration 30” value is 0; the “phage screen counts, Target Concentration 100” value was determined as 0; the “phage screen counts, Target Concentration 300” value turned out to be 0. For the same sequence, the “phage screen counts, Target Concentration 1000” value in the test with CDK2 (setting [1]) amounted to 90. In addition, the “phage screen counts, Target Concentration 1000” value with CDK2 (setting [2]) was 50.
As for DPAWWVCSIAAIECESS, in the test with CDK2, the “phage screen counts, Target Concentration 10” value was determined as 0; the “phage screen counts, Target Concentration 30” value is reported as 0; the “phage screen counts, Target Concentration 100” value was determined as 10; the “phage screen counts, Target Concentration 300” value is given as 85. For the same sequence, the “phage screen counts, Target Concentration 1000” value in the test with CDK2 (setting [1]) is recorded as 65. For the same sequence, in the test with CDK2 (setting [2]), the “phage screen counts, Target Concentration 1000” value is recorded as 77.
In the case of “PECLEAFFDCR (linker 3-10 via Phenylene(1,4-NHCOCH2)2 (inferred))”, in the test with CDK2, the “phage screen counts, Target Concentration 10” value turned out to be 0; the “phage screen counts, Target Concentration 30” value was found to be 9; the “phage screen counts, Target Concentration 100” value was 0; the “phage screen counts, Target Concentration 300” value is given as 84. In addition, the “phage screen counts, Target Concentration 1000” value in the test with CDK2 (setting [1]) was 344. The “phage screen counts, Target Concentration 1000” value with CDK2 (setting [2]) is reported as 328.
As for “DPAWWRCVVAALDCVDY (linker 7-14 via Phenylene(1,4-NHCOCH2)2 (inferred))”, in the test with CDK2, the “phage screen counts, Target Concentration 10” value is reported as 0; the “phage screen counts, Target Concentration 30” value is reported as 12; the “phage screen counts, Target Concentration 100” value stood at 8; the “phage screen counts, Target Concentration 300” value is 262. Moreover, in the test with CDK2 (setting [1]), the “phage screen counts, Target Concentration 1000” value is 162. The “phage screen counts, Target Concentration 1000” value in the test with CDK2 (setting [2]) came out at 409.
Take “DPAWWVCAIAAMDCHEQ (linker 7-14 via Phenylene(1,4-NHCOCH2)2 (inferred))”: in the test with CDK2, the “phage screen counts, Target Concentration 10” value stood at 0; the “phage screen counts, Target Concentration 30” value is 0; the “phage screen counts, Target Concentration 100” value amounted to 0; the “phage screen counts, Target Concentration 300” value was determined as 139. The “phage screen counts, Target Concentration 1000” value with CDK2 (setting [1]) came out at 216. The “phage screen counts, Target Concentration 1000” value with CDK2 (setting [2]) turned out to be 422.
Take “PSCLSAFFSCY (linker 3-10 via Phenylene(1,4-NHCOCH2)2 (inferred))”: in the test with CDK2, the “phage screen counts, Target Concentration 10” value is recorded as 0; the “phage screen counts, Target Concentration 30” value is 1; the “phage screen counts, Target Concentration 100” value is listed as 0; the “phage screen counts, Target Concentration 300” value is recorded as 14. Moreover, the “phage screen counts, Target Concentration 1000” value in the test with CDK2 (setting [1]) was 722. Further, the “phage screen counts, Target Concentration 1000” value with CDK2 (setting [2]) came out at 485.
In the case of “PCMDAFFSCVW (linker 2-9 via Phenylene(1,4-NHCOCH2)2 (inferred))”, in the test with CDK2, the “phage screen counts, Target Concentration 10” value was determined as 0; the “phage screen counts, Target Concentration 30” value amounted to 0; the “phage screen counts, Target Concentration 100” value is 1; the “phage screen counts, Target Concentration 300” value is given as 0. Further, the “phage screen counts, Target Concentration 1000” value in the test with CDK2 (setting [1]) stood at 39. The “phage screen counts, Target Concentration 1000” value with CDK2 (setting [2]) came to 8.
Regarding “DPAWWVCAVAAIECQEY (linker 7-14 via Phenylene(1,4-NHCOCH2)2 (inferred))”, in the test with CDK2, the “phage screen counts, Target Concentration 10” value came to 3; the “phage screen counts, Target Concentration 30” value is 47; the “phage screen counts, Target Concentration 100” value turned out to be 258; the “phage screen counts, Target Concentration 300” value amounted to 1258. Further, the “phage screen counts, Target Concentration 1000” value with CDK2 (setting [1]) turned out to be 822. The “phage screen counts, Target Concentration 1000” value with CDK2 (setting [2]) worked out at 819.
As to “DPAWYECIVAAIECVEY (linker 7-14 via Phenylene(1,4-NHCOCH2)2 (inferred))”, in the test with CDK2, the “phage screen counts, Target Concentration 10” value was determined as 0; the “phage screen counts, Target Concentration 30” value came out at 0; the “phage screen counts, Target Concentration 100” value was 79; the “phage screen counts, Target Concentration 300” value is 131. Further, the “phage screen counts, Target Concentration 1000” value with CDK2 (setting [1]) was 54. Moreover, the “phage screen counts, Target Concentration 1000” value with CDK2 (setting [2]) amounted to 115.
